# From the nanobody polyreactivity screen of Harvey et al. (2022)
# Experiment: yeast display, Sf9 membrane polyspecificity reagent, FACS + sequencing; frameworks hold sequencing errors
# Method in brief: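 Genes from sorted yeast were amplified by colony PCR, read by MiSeq 2 × 250 sequencing and filtered on CDR length. These cells carried a synthetic nanobody library in Saccharomyces cerevisiae BJ5465 and were sorted by FACS into low and high (top ~1%) gates on anti-HA and streptavidin fluorescence. Polyreactivity is labelled according to the gate of origin.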
row,Sequence,polyreactivity (PSR sort gate)
1,QVQLVESGGGLVQAGGSLRLSCAASGSIFRPYAMGWYRQAPGKERELVAAISGSGGTTYYADSVKGRFTISRDNAKNTVYLQMNSLKTEETAVYYCAARNFSAFWLGGYDYWGQGTQVTVSS,low polyreactivity
2,QVQLVESGGGLVQAGGSLRLSCAASGSIFRPYAMGWYRQAPGKERELVATITWSGGSTYYADSVKGRFTISRDNAKNTVYLQMNSLKPEDTAVYYCAADPDLLWEYSDGYYGGDGGYWGQGTQVTVSS,low polyreactivity
3,QVQLVESGGGLVQAGGSLRLSCAASGSIFRPYTMGWYRQAPGKERELVAAITGSGGSTYYADSVKGRFTISRDNAKNTVYLQMNSLKPEDTAVYYCNAGWRVWGYSGSYYWFNYWGQGTQVTVSS,high polyreactivity
4,QVQLVESGGGLVQAGGSLRLSCAASGSIFRQNAMGWYRQAPGKERELVAAISSSGGSTYYADSVKGRFTISRDNAKNTVYLQMNSLKPEDTAVYYCAARLRRTQTYSSGRPGDYWGQGTQVTVSS,high polyreactivity
5,QVQLVESGGGLVQAGGSLRLSCAASGSIFRQYAMGWYRQAPGKERELVAAIRRGTSTYYADSVKGRFTISRDNAKNTVYLQMNSLKPEDTAVYYCAKHQHYPHYQPYWSRYDYWGQGTQVTVSS,low polyreactivity
6,QVQLVESGGGLVQAGGSLRLSCAASGSIFRQYAMGWYRQAPGTERELVAAINYSGGNTYYADSVKGRFTISRDNAKNTVYLQMNSLKPEDTAVYYCAADSVRHYWWAYYYWGQGTQVTVSS,low polyreactivity
7,QVQLVESGGGLVQAGGSLRLSCAASGSIFRRNAMGWYRQAPGKARELVATITSSGGSTYYADSVKGRFTISRDNAKNTVYLQMNSLKPEDTAVYDCATDGQSPYYIYYWGQGTQVTVSS,low polyreactivity
8,QVQLVESGGGLVQAGGSLRLSCAASGSIFRRNAMGWYRQAPGKERELVAAISQSGGSTYYADSVKGRFTISRDNAKNTVYLQMNSLKPEDTAVYYCAAKHRVYGTRGYGYDYWGQGTQVTVSS,high polyreactivity
9,QVQLVESGGGLVQAGGSLRLSCAASGSIFRRNAMGWYRQAPGKERELVAGISGGGSTYYADSVKGRFTISRDNAKNTVYLQMNSLKPEDTAVYYCSTDKHYRWAGFDYWGQGTQVTVSS,low polyreactivity
10,QVQLVESGGGLVQAGGSLRLSCAASGSIFRRNAMGWYRQAPGKERELVATITSDGSTDYADSVKGRFTISRDNAKNTVYFQMNSLKPEDTAVYYCAVAYLWRPYDFREFDYWGQGTQVTVSS,low polyreactivity
11,QVQLVESGGGLVQAGGSLRLSCAASGSIFRRYAIGWYRQAPGKERELVAAISGRGGSTYYADSVKGRFTISRDNAKNTVYLQMNSLKPEDTAVYYCNADRYYSHYSYYYWGQGTQVTVSS,high polyreactivity
12,QVQLVESGGGLVQAGGSLRLSCAASGSIFRRYAMGWYRQAPGKERELVAAITNGGGSTYYADSVKGRFTISRDNAKNTVYLQMNSLKPEDSAVYYCARRLASNYGAYDYWGQGTQVTVSS,low polyreactivity
13,QVQLVESGGGLVQAGGSLRLSCAASGSIFRRYAMGWYRQAPGKERELVASITSSVGRTYYADSVKGRFTISRDNAKNTVYLQMNSLKPEDTAVYYCAVYVGRWGAGGKGDYWGQGTQVTVSS,low polyreactivity
14,QVQLVESGGGLVQAGGSLRLSCAASGSIFRRYAMGWYRQAPGKESELVAAITWGGGRTYYADSVKGRFTISRDNAKNTVYLQMNSLKPEDTAVYYCNAERSVYASGKSYLYDYWGQGTQVTVSS,high polyreactivity
15,QVQLVESGGGLVQAGGSLRLSCAASGSIFRRYDMGWYRQAPGKERELVAAISSSGGSTYYADSVKGRFTISRDNAKNTVYLQMNSLKPEDTAVYYCAADIYDDDRSEYTEYDYWGQGTQVTVSS,low polyreactivity
16,QVQLVESGGGLVQAGGSLRLSCAASGSIFRRYTMGWYRQAPGKERELVAAISRVGNTNYADSVKGRFTISRDNAKNTVYLQMNSLKPEDTAVYYCAADLYWLLYDEDWYWWEYESDSWGQGTQVTVSS,high polyreactivity
17,QVQLVESGGGLVQAGGSLRLSCAASGSIFRSNAMGWYRQAPGKERELVAVIRSGGTTNYADSVKGRFTISRDNAKNTVYLQMNSLKPEDTAVYYCAAYGAHGGVIVVEGDYWGQGTQVTVSS,low polyreactivity
18,QVQLVESGGGLVQAGGSLRLSCAASGSIFRSNAMGWYRQAPGQERELVAAISRSGGRTYYADSVKGRFTISRDNAKNTVYLQMNSLKPEDTAVYYCAAQVVRSLKYEYWGQGTQLTVSS,high polyreactivity
19,QVQLVESGGGLVQAGGSLRLSCAASGSIFRSYAMGWYRQAPGKERELDAAISRRGSSTYYADSVKGRFTISRDIAKNTVYLQMISLKPEDSAVYYCNRVRYPRVDYWGQGTQVTVSS,high polyreactivity
20,QVQLVESGGGLVQAGGSLRLSCAASGSIFRSYAMGWYRQAPGKERELVASISRRGGSTYYADSVKGRFTISRDNAKNTVYLQMNSLKPEDTAVYYCAADHYHGYWKYDYWGQGTQVTVSS,low polyreactivity

row,Sequence,polyreactivity (PSR sort gate)
1,QVQLVESGGGLVQAGGSLRLSCAASGSIFRSYAMGWYRQSPGKERELVAAITRSGGSTYYADSVKGRFTISRDNAKNTVDLQMNSLKPEDTAVYYCAAEYYSYTWGWGHGYWGQGTQVTVSS,high polyreactivity
2,QVQLVESGGGLVQAGGSLRLSCAASGSIFRTNAMGWYRQAPGKEREFVASISSDSGNTYYADSVKGRFTISRDNAKNTVYLQMNSLKPEDTAVYYCARRKVRYWSYRAANYYWGQGTQVTVSS,low polyreactivity
3,QVQLVESGGGLVQAGGSLRLSCAASGSIFRTNAMGWYRQAPGKEREYVATISSDSGNTYYADSVKGRFTISRDNAKNTVYLQMNSLKPEDTAVYYCARRKVRYWSYRAANYYWGQGTQVTVSS,low polyreactivity
4,QVQLVESGGGLVQAGGSLRLSCAASGSIFRVNAMGWYRQAPGKERELVAAITDGGITNYADSVKGRFTISRDNAKNTVYLQMNSLKPEETAVYYCAADTDRDFHYVVPTYDYWGQGTQVTVSS,low polyreactivity
5,QVQLVESGGGLVQAGGSLRLSCAASGSIFRVYAMGWYRHAPGKERELVATITSSGGFTYADSVKGRFTISRDNAKNTVYLQMNSLKQEDTAVYYCATVRFGQYWVPSGYSWGYTYDYWGQGTQVTVSS,high polyreactivity
6,QVQLVESGGGLVQAGGSLRLSCAASGSIFRVYAMGWYRQAPGKEREFVAAISYSTGSTYADSVKGRFTISRDNAKNTVYLQMNSLKPEDTAVYYCNARFRYGSRDEYDYWGQGTQVTVSS,low polyreactivity
7,QVQLVESGGGLVQAGGSLRLSCAASGSIFRVYAMGWYRQAPGKERELVAAITRGGSTYADSVKGRFTISRDNAKNTVYLQMNSLKPEDTAVYYCAAQRTLYRSGFDSWGQGTQVTVSS,high polyreactivity
8,QVQLVESGGGLVQAGGSLRLSCAASGSIFRVYAMGWYRQAPGKERELVAVISIAGRTNYADSVKGRFTISRDNAKNTVYLQMNSLKPEDTAVYYCNAEWDLNHLYDSWGQGTQVTVSS,low polyreactivity
9,QVQLVESGGGLVQAGGSLRLSCAASGSIFRVYAMRWYRQAPGKERELVAAISKSGSSTYYADSVKGRFTISRDNAKNTVYLQMNSLKPEDTAVYYCAARRVLGEYGYWGQGTQVTVSS,high polyreactivity
10,QVQLVESGGGLVQAGGSLRLSCAASGSIFRWNAMGWYRQAPGKERDLVDVINSSVGSTYYADSVKGRFTISRDNAKNTVYLQMYSLKPEDTAVYYCAADVELGWGNSVAYEYWGQGTQVTVSS,low polyreactivity
11,QVQLVESGGGLVQAGGSLRLSCAASGSIFRWYAMGWYRQAPGKERDLVAAITWSGGRTYYADSVKGRFTISRDNAKNTVYLQMNSLKPEDTAVYDCAKPALVTSYRVGYNYWGQGTQVTVSS,high polyreactivity
12,QVQLVESGGGLVQAGGSLRLSCAASGSIFRWYAMGWYRQAPGKERELVASISSGTRTNYADSVKGRFTISRDNAKNTVYLQMNSLKPEDTAVYYCAAPYVKRWWGYGYWGQGTQVTVSS,high polyreactivity
13,QVQLVESGGGLVQAGGSLRLSCAASGSIFRWYAMGWYRQAPGKERELVAVISYGGGSTYYADSVKGRFTISRDNAKNTVYLQMNSLKPEDTAVYYCAADPTWRYYYHYTYYYWGQGTQVTVSS,high polyreactivity
14,QVQLVESGGGLVQAGGSLRLSCAASGSIFRWYDMGWYRQAPGKERELVAAITWSGSTYYADSVKGRFTISRDNAKNTVYLQMNSLKPEDTAVYYCAAGSRYCNAETYSWYDYWGQGTQVTVSS,high polyreactivity
15,QVQLVESGGGLVQAGGSLRLSCAASGSIFRWYDMGWYRQAPGKERELVAAITWSGSTYYADSVKGRFTISRDNAKNTVYLQMNSLKPEDTAVYYCAAGSRYSYAYTMDYWGQGTQVTVSS,high polyreactivity
16,QVQLVESGGGLVQAGGSLRLSCAASGSIFRYNAMGWYRQAPGKEREFVAIISYAGVRTYYADSVKGRFTISRDNAKNTVYLQMNSLKPEDTAVYYCAADFKQKGHRTRTTYWGQGTQVTVSS,high polyreactivity
17,QVQLVESGGGLVQAGGSLRLSCAASGSIFRYNAMGWYRQAPGKERELVAAISWSGGSTYYADSVKGRFTISRDNAKNTVYLQMNSLKPEDTAVYYCATRYYVNVPGRRYGYWGQGTQVTVSS,low polyreactivity
18,QVQLVESGGGLVQAGGSLRLSCAASGSIFRYNAMGWYRQAPGKERELVASISISDGSTYYADSVKGRFTISRDNAKNTVYLQMNSLKPEDTAVYYCAARTRDFYYPYDYWGQGTQVTVSS,low polyreactivity
19,QVQLVESGGGLVQAGGSLRLSCAASGSIFRYNAMGWYRQAPGKERELVAVITSTGSTSYADSVKGRFTISRDNAKNTVYLQMNSLKPEDTAVYYCAATRERHYSYQYLVPYYYWGQGTQVTVSS,high polyreactivity
20,QVQLVESGGGLVQAGGSLRLSCAASGSIFRYYAMGWYIQAPGKERELVASITRGGTRTYYADSVKGRFTISRDYAQNTVYLQMNSLKPEDTAVYYCAATYAWYVAPTYDYWGQGTQVTVSS,high polyreactivity
